From patent US20230295310A1 (ABCELLERA BIOLOGICS, published 2023)
Changes are numbered by the printed parent chain.

B1: GOMP001_bsAb_011 (bispecific antibody, human IgG1, kappa, L234A L235A)
heavy 1: QVQLVQSGAEVKKPGASVKVSCKASGYTFTSHWMHWVRKAPGQGLEWIGEFNPSNGRTNYNEEFKSKATMTVDTSTNTAYMELSSLRSEDTAVYYCASRDYDYDGRYFDYWGQGTLVTVSSASTKGPSVFPLAPSSKSTSGGTAALGCLVADYFPEPVTVSWNSGALTSGVHTFPAVLQSSGLYSLSSVVTVPSSSLGTQTYICNVNHKPSNTKVDEKVEPKSCDKTHTCPPCPAPEAAGGPSVFLFPPKPKDTLMISRTPEVTCVVVDVSHEDPEVKFNWYVDGVEVHNAKTKPREEQYNSTYRVVSVLTVLHQDWLNGKEYKCKVSNKALPAPIEKTISKAKGQPREPQVYTLPPSREEMTDNQVSLTCLVKGFYPSDIAVEWESNGQPENNYKTTPPVLMSDGSFFLASKLTVDKSRWQQGNVFSCSVMHEALHNHYTQKSLSLSPG
light 1: RIQMTQSPSSLSASVGDRVTITCSASSSVTYMYWYQDKPGKAPKLLIYDTSNLASGVPSRFSGSGSGTDYTFTISSLQPEDIATYYCQQWSSHIFTFGQGTKVEIKRTVAAPSVFIFPPSDKQLKSGTARVVCLLNNFYPREAKVQWKVDNALQSGNSQESVTEQDSKDSTYSLSSTLTLSKADYEKHKVYACEVTHQGLSSPVTKSFNRGEC
heavy 2: EVQLVESGGGLVQPGGSLRLSCAASGFTLSSYTMNWVRYAPGKGLEWVSYISSSSRTIYYSDRVKGRFSISRDNAKNSLYLQMNSLRDEDTALYYCAREDYYDSSGFDNWGRGTLVTVSSASTKGPSVFPLAPSSKSTSGGTAALGCLVKDYFPEPVTVSWNSGALTSGVHTFPAVLQSSGLYSLSSVVTVPSSSLGTQTYICNVNHKPSNTKVDKKVEPKSCDKTHTCPPCPAPEAAGGPSVFLFPPKPKDTLMISRTPEVTCVVVDVSHEDPEVKFNWYVDGVEVHNAKTKPREEQYNSTYRVVSVLTVLHQDWLNGKEYKCKVSNKALPAPIEKTISKAKGQPRRPRVYTLPPSREEMTKNQVSLVCLVKGFYPSDIAVEWESNGQPENNYKTTPPVLDSDGSFFLYSVLTVDKSRWQQGNVFSCSVMHEALHNHYTQKSLSLSPG
light 2: DIRMTQSPSSFSASTGDRVTITCRASQGISSYLAWYQRKPGDAPKLLIYTASTLQSGVPSRFSGSGSGTDFTLTIRSLQSEDFATYYCQQYYSYPRTFGQGTKVEIKRTVAAPSVFIFPPSDEQLKSGTASVVCLLNNFYPREAKVQWKVDNALQSGNSQESVTEQDSKDSTYSLSSTLTLSKADYEKHKVYACEVTHQGLSSPVTKSFNRGEC
B2: GOMP001_bsAb_012 (bispecific antibody, human IgG1, kappa, L234A L235A)
heavy 1: B1 heavy 2
light 1: B1 light 2
heavy 2: QVQLVQSGAEVKKPGASVKVSCKASGYTFTSHWMHWVRYAPGQGLEWIGEFNPSNGRTNYNEKFKSKATMTVDTSTNTAYMELSSLRSEDTAVYYCASRDYDYDGRYFDYWGRGTLVTVSSASTKGPSVFPLAPSSKSTSGGTAALGCLVKDYFPEPVTVSWNSGALTSGVHTFPAVLQSSGLYSLSSVVTVPSSSLGTQTYICNVNHKPSNTKVDKKVEPKSCDKTHTCPPCPAPEAAGGPSVFLFPPKPKDTLMISRTPEVTCVVVDVSHEDPEVKFNWYVDGVEVHNAKTKPREEQYNSTYRVVSVLTVLHQDWLNGKEYKCKVSNKALPAPIEKTISKAKGQPRRPRVYTLPPSREEMTKNQVSLVCLVKGFYPSDIAVEWESNGQPENNYKTTPPVLDSDGSFFLYSVLTVDKSRWQQGNVFSCSVMHEALHNHYTQKSLSLSPG
light 2: B1 light 1 with R1D, D37R, K41D, K122E, R130S
B3: GOMP001_bsAb_013 (bispecific antibody, human IgG1, kappa, L234A L235A)
heavy 1: B1 heavy 1
light 1: B1 light 1
heavy 2: QVQLVQSGAEVKKPGASVKVSCKASGYTFTSYDINWVRYATGQGLEWMGWMNPKSGKTGYAQKFQGRITMTRNTPISTVYMDLSSLRSEDTAVYYCAREGHYDFWTGYYSFDYWGRGTLVTVSSASTKGPSVFPLAPSSKSTSGGTAALGCLVKDYFPEPVTVSWNSGALTSGVHTFPAVLQSSGLYSLSSVVTVPSSSLGTQTYICNVNHKPSNTKVDKKVEPKSCDKTHTCPPCPAPEAAGGPSVFLFPPKPKDTLMISRTPEVTCVVVDVSHEDPEVKFNWYVDGVEVHNAKTKPREEQYNSTYRVVSVLTVLHQDWLNGKEYKCKVSNKALPAPIEKTISKAKGQPRRPRVYTLPPSREEMTKNQVSLVCLVKGFYPSDIAVEWESNGQPENNYKTTPPVLDSDGSFFLYSVLTVDKSRWQQGNVFSCSVMHEALHNHYTQKSLSLSPG
light 2: DIQMTQSPSSLSASVGDRVTITCRASQGIRNDLGWYQRTPGDAPKRLIYAASSLQSGVPSRFSGSGSGTEFTLTISSLQPEDFATYYCLQHYSYPYTFGQGTKLEIKRTVAAPSVFIFPPSDEQLKSGTASVVCLLNNFYPREAKVQWKVDNALQSGNSQESVTEQDSKDSTYSLSSTLTLSKADYEKHKVYACEVTHQGLSSPVTKSFNRGEC
B4: GOMP001_bsAb_014 (bispecific antibody, human IgG1, kappa, L234A L235A)
heavy 1: B3 heavy 2
light 1: B3 light 2
heavy 2: B2 heavy 2
light 2: B1 light 1 with R1D, D37R, K41D, K122E, R130S
B5: GOMP001_bsAb_015 (bispecific antibody, human IgG1, kappa, L234A L235A)
heavy 1: B1 heavy 1
light 1: B1 light 1
heavy 2: QVQLVESGGGVVQPGRSLRLSCAASGFTFSGYGMHWVRYAPGKGLDWVAIIYYNGNNKYYADRVKGRFTISRDNSKNTLYLQMNSLRAEDTAVYYCARGGGYNWFDPWGRGTLVIVSSASTKGPSVFPLAPSSKSTSGGTAALGCLVKDYFPEPVTVSWNSGALTSGVHTFPAVLQSSGLYSLSSVVTVPSSSLGTQTYICNVNHKPSNTKVDKKVEPKSCDKTHTCPPCPAPEAAGGPSVFLFPPKPKDTLMISRTPEVTCVVVDVSHEDPEVKFNWYVDGVEVHNAKTKPREEQYNSTYRVVSVLTVLHQDWLNGKEYKCKVSNKALPAPIEKTISKAKGQPRRPRVYTLPPSREEMTKNQVSLVCLVKGFYPSDIAVEWESNGQPENNYKTTPPVLDSDGSFFLYSVLTVDKSRWQQGNVFSCSVMHEALHNHYTQKSLSLSPG
light 2: not shown
B6: GOMP001_bsAb_016 (bispecific antibody, human IgG1, kappa, L234A L235A)
heavy 1: B5 heavy 2
light 1: not shown
heavy 2: B2 heavy 2
light 2: B1 light 1 with R1D, D37R, K41D, K122E, R130S

Biological target: human EGFR, C-terminal eGFP-tagged, on CHO-K1 cells (human, UniProt P00533 25-1210)
Test: cell-based or functional assay

Row | Binder | EC50 CHO-K1 EGFR Low (nM); T cell activation bioassay, luciferase | EC50 CHO-K1 EGFR Med (nM); T cell activation bioassay, luciferase
1 | B1 | 0.106 nM | 0.0263 nM
2 | B2 | 0.147 nM | 0.0234 nM
3 | B3 | 1.31 nM | 0.239 nM
4 | B4 | 0.238 nM | 0.0722 nM
5 | B5 | 0.515 nM | 0.0267 nM
6 | B6 | 0.0531 nM | 0.00316 nM
